Assay: yeast display, Sf9 membrane polyspecificity reagent, FACS + sequencing; frameworks hold sequencing errors
In short: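 Genes from sorted yeast were amplified by colony PCR, read by MiSeq 2 × 250 sequencing and filtered on CDR length. These cells carried a synthetic nanobody library in Saccharomyces cerevisiae BJ5465 and were sorted by FACS into low and high (top ~1%) gates on anti-HA and streptavidin fluorescence. Polyreactivity is labelled according to the gate of origin.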

Sequence | polyreactivity (PSR sort gate)
QVQLVESGGGLVQAGGSLRLTCAASGRIFTVYAMGWYRQAPGKERELVAAIDFSDGTTYYADSVKGRFTISRDNAKNTVYLQMNSLKPEDTAVYYCAAEGGSALDDDYWGQGTQVTVSS | high polyreactivity
QVQLVESGGGLVQAGGSLRLSCAASGRTFRRYAMGWYRQAPGKERELVAAISFGGRTYYADSVKGRFTISRDNAKNTVYLQMNSLKPEDTAVYYCAVRSYDQLIVPRDYWGQGTQVTVSS | high polyreactivity
QVQLVESGGGLVQAGGSLRLSCAASGSIFKWNAMGWYRQAPGKEWELVAAITWSGGRTYYADSVKGRFTISRDNAKNTVYLQMNSLKPEDTAVYYCAATQYRSDGWRYDYWGQGTQVTVSS | high polyreactivity
QVQLVESGGGLVQAGGSLRLSCAASGFTFSGNALGWYRQARGKERELVAAISVGGGRTYYADSVKGRFTISRDNAKNTVYLQMNSLKPEDTAVYYCARYTRRSETWRYDYWGQGTQVTVSS | high polyreactivity
QVQLVESGGGLVQAGGSLRLSCAASGRTFRYYSMGWYRQAPGKERELVAAISSRGNTYYADSVKGRFTISRDNAKNTVYLQMNSLKPEDTAVYYCAARNVVTGYRYDYWGHGTQVTVSS | high polyreactivity
QVQLVESGGGLVQAGGTLRLSCAASGSTFLINAMGWYRQAPGKERELVAAISWGGGSTYYADSVKGRFTISRDNGKNSVDLQMNRLTPEDTAVYYCAARYWYRVDYWGQGTQVTVSS | high polyreactivity
QVQLVESGGGLVQAGGSLRLSCAASGITFRVYVMGWYRQAPGKERELVAAITRSGGRTYYADSVKGRFTISRDNAKNTVYLQMNSLKPEDTAVYYCAAEYDVYGIYEYDYWGQGTQVTVSS | high polyreactivity
QVQLVESGGGLVQAGGSLRFSCAASRLTFYWYAMGWYRQPPGKERELVAGISWSGGSTYADSVKGRFTITRDNAKNTVYLQLNSLKPEDTAVYYCAADTYYYRGQSYYYWGQGTEVTVSS | high polyreactivity
QVQLVESGGALVQAGGSLRLSCAASGRTFGINAMGWYRQAPGKERELVAAIRTGGSTYYADSVKGRFTISRDNAKNTVYLQMNSLKPADTAVYYCAAKAYRRYTIPPYGYWGQGTQVTVSS | high polyreactivity
QVQLVESGGGLVQAGGSLRLRCGASGSTFGIYAMGWYRQAPGKERELVAAITLRTDSTYYADSVKGRFTISRDNAKNTVYLQMNSLKPEDTAVYYCARRYRYGYDYWGQGTQVSVSS | low polyreactivity
QVQLVESGGGLVQAGGSLRLSCAASGRTFGTNAMGWYRQAPGKERELVAAISWRGTSTYYADSVKGRFTISRDNAKNTVYLQMNSLKPEDTAVYYCAADFSYTSYATRYQGDYWGQGTQVTVSS | low polyreactivity
QVQLVESGGGLVQAGGSLRLSCAASGNIFDGNAMGWYRQAPGKERELVAAITSSGDSTYYADSVKGRFTISRDNAKNTVYLLMNSLKPEDTAVYYCAAGYRWGYYYWGQGTQVTVSS | high polyreactivity
QVQLVESGGGLVQAGGSLRLSCAASGSTFYNYVMGWYRQAPAKERELVAAITSRGGRTYYADSVKGRFTISRDNAKNTVSLQMNSLKPEDTAVYYCARDRGYQSGYDYWGQGTQVTVSS | high polyreactivity
QVQLVESGGGLVQAGRSLRLSCAASGRTMNGNAMGWYRQAPGKERELVAAITRGGSTYYADSVKGRFTISRDNEKNSVYLQMYSLKPEVTAVYYCAADARYTGYYYWGQGTQVTVSS | high polyreactivity
QVQLVESGGGLVQAGGSLRLSCAASGFTFKFYAMGWYRQAPGKERELVAAISARGGITYYADSVKGRFTISRDNAKNTVYLQMNSLKPEDTAVYYCAAGVFGHYAFVEFDYWGQGTQVTVSS | high polyreactivity
QFQLVESGGGLVQAGGSLRLSCAASGRTFIVYAMGWYRQAPGKERELVAGITLGSTNYADSVKGRFTISRDNAKNTVYLQMNSLKPEDTAVYYCAARSSRRGPISEGDYWGQGTQVTVSS | high polyreactivity

Sequence | polyreactivity (PSR sort gate)
QVQLVESGGGLDQARGSLRLSCAASGRIFRSYVMGWYRQAPWKERELVAAISWRGGSTYADSVKGRFTISRDNAKNTVYLQMNSLKPEDTAVYYCAARGPYTYRRYCYWGQGTQVTVSS | high polyreactivity
QVQLVESGGGLVQAGGSLRLSCAASGFTFPLNAMGWYRQAPWKERELVAAITNGGTTYYADSVKGRFTISRDNAKNTVYLQMNSLKPEDTGVYYCAAYTYRYGSFKYGYWGQGTQVTVSS | low polyreactivity
QVQLVESGGGLVQAGGSLRLSCAASGLTFVYYTMGWYRQAPGKERELVAGINSGGSTYYADSVKGRFTISRDNAKNTVFLQMNSLKPEDTAVYYCAAVQRGYRRFRRIYDYWGQGTQVTVSS | high polyreactivity
QVQLVESGGGLVQAGGSLRLSCAASGFTFRWYTMGWYRQAPGKERELFAAITGSGCTTYYADSVKGRFTISRDNAKNTVYLQMNSLKPEDTAVYYCAVVSGSLRTRYTYYYWGLGTQVTVSS | high polyreactivity
QVQLVESGGGLVQAGGSLSLSCAASGYTLYANAMGWYRQAPGKERELVAAIRSGGSTNYADSVKGRFTISRDNAKNTVYLQMNSMKPEDTAVYYCAKDPYQDFLYLRYYGYYYWGQGTQVTVSS | low polyreactivity
QGQRVESGGGLVQAGGSLRLSCAGSGSTCVGYTMGWYRQAPGKERELVAAITSSDGSTYYADSVKGRFTISRDNAKNTVYLQMNSQKPEDTAVYYCAQTTRYPRGYGYWGQGTQVTVSS | low polyreactivity
QVQLVESGGGLVQAGGSLRLSCAASGSTFYRYAMGWYRQAPGKERELVAAISRGGGRTNYADSVKGRFTISRDNAKNTVYLQMNSLKPEDTAVYYCAADDTYTRYDYWGQGTQVTVSS | high polyreactivity
QVQLVESGGGLVQAGGSLRLICAASGLIFTHNTMGWYRQAPGKERELVAAITTSGGTTYYADSVKGRFTISRDNAKNTVYLQMNSLKPEDTAFYYCAARAPWPKWGYYYWGQGTQVTVSS | high polyreactivity
QVQLVESGGGLVQAGGSLRLSCATSRSTFVLYAMGWYRQAPGKERELDAAISGGATTTYADSVKGRFTISRDNAKNTVYLQMNSLKPEVTAVYYCAADFSTYVVSGAALDYWGQGTQVTLSS | low polyreactivity
QVQLVESGGGLVQAGGSLRLSCAASGSIFRYYVMGWYRQAPGKERELVAAISGGSTYYADSVKGRFTISRDNAKNTVYLQMNSLKPEDTAVYYCAAEQWSTGYYYWGQGTQVTVSS | high polyreactivity
QVQLVDSGGGLVQAGGSLRLSCASSGFIFAVYAMGWYRQAPGKERELVARISWSGGSTYYADSVKGRFTISRDNAKNTVYLQMNSLKPEDTAVNYCWGQGTQVTVSS | low polyreactivity
QVQLVESGGGLVQAGGSLRLSCAASGRTFDEYAMGWYRQAPGKERVLVAAIDSGGSTTYADSVKGRFTISRDNAKNTVYLQINSLKPEDTAVYYCAASYPYWYITPRKFEYWGQGTQVTVSS | low polyreactivity
QVQLVESGGGLVQAGGSLRLTCAASGITFTIYAMGWYRLATGKERELVAAISWSGTSTYYADSVKGRFTISRDNAKNTVYLKMNSLKQEDTAVYYCAADYTTSQGDSELDYWGQGTQVTVSS | low polyreactivity
QVQLVESGGGLVQAGGSLRLSCAASGSIFRQYAMGWYRQAPGKERELVAAISRGGITYYADSVKGRFTISRDNAKNTVYLQMNSLKPEDTAVYYCAARYGRGERGGFYWGQGTQVTVSS | high polyreactivity
QVQLVESGGGLVQAGRSLRLSCAASGFIFRYYAMGWYRQAPGKETELVAAIRGGGSTYYADSVKGRFTISRDNAKNTVYLQMKSLNPEDTAVYYCAVRWVSRFGISSYDYWGQGTQVTVSS | high polyreactivity
QVQLVESVGGLVQAGGILRLSCAASGYTFGGSAKGWYRPAPGKERELVAAITRRGGSTYYADSVKGRFTISRDNAKNTVYLQMNSLKPEDTAVYYCAKRSGSYSYPAVGGWGLGYWGHGTQVTVSS | high polyreactivity

Source: the nanobody polyreactivity screen of Harvey et al. (2022)
